Experimental data taken from article PMC2995052 (Nucleic Acids Research, 2010).

Target: the molecule itself
Experiment: SEC

B1: P2 C repressor (immunity repressor of temperate Escherichia coli phage P2) (natural protein, bacteriophage P2, UniProt P04132 1-99, looked up)
chain: MSNTISEKIVLMRKSEYLSRQQLADLTGVPYGTLSYYESGRSTPPTDVMMNILQTPQFTKYTLWFMTNQIAPEFGQIAPALAHFGQNETTSPHSGQKTG
  stoichiometry N: 2
